Laboratory results as given in patent US12570957B2, “Isolated naive pluripotent stem cells and methods of generating same” (Yeda Research and Development Co. Ltd., priority 2013, dated 2026).

Assays:
Type in all cases: cell-based
[1] = system: WIS1 naive human ESCs; assay: PGCLC induction from naive ESCs, NANOS3-mCherry FACS; conditions: 2 days N2-KSR medium then 4 days PGC medium
Excerpt: FIGS. 96A-96I depict the process of differentiating human ESCs into primordial germ cell like cells. FIG. 96A—schematic illustration of the differentiation process. FIGS. 96B-96I—FACS analyses for detecting PGCLC marker expression NANOS3-Cherry. […] Shown are FACS results after 2 (FIGS. 96D and 96G), 4 (FIGS. 96E and 96H), and 6 (FIGS. 96F and 961) days in the PGC medium. The Figures show specific induction of mCherry reporter at Day 2+4 and only when BMP4 is included in the differentiation medium (FIG. 96E). […] One representative experiment is shown out of five performed. +/− indicates s.d. (n=5).
N2-KSR medium—250 ml Neurobasal medium (Invitrogen—#21103-049), 250 ml DMEM-F12, N2 supplement (Invitrogen, #17502-048), 1% KSR (knockout serum replacement, Invitrogen, #10828028) medium] with 8 ng/ml bFGF (Peprotech), 1 ng/ml TGF-β1 (Peprotech) and ROCKi (10 μM).
PGC medium is comprised of GMEM (Invitrogen, #21710082), 15% KSR, 1% NNEA (Biological industries, 01-340-1B), Penicillin-Streptomycin, 1 mM L-Glutamine, […] (Y-27632, Axon Medchem) and the following cytokines: 500 ng/ml BMP4 (bone morphogenetic protein 4; R&D Systems Inc.), 20 ng/ml LIF (leukemia inhibitory factor; PeproTech), 100 ng/ml SCF (Stem Cell Factor; PeproTech), 50 ng/ml EGF (Epidermal Growth Factor; Peprotech). […]

[2] = system: naive hESCs/hiPSCs; assay: Pluripotency maintenance after supplementation of inhibitors or growth factors; conditions: naive human cells in WIS-NHSM
Procedure: (§1) Shown are histograms depicting colony formation of pluripotent cell lines in various media. Cell populations were equally divided and plated on gelatin/vitronectin coated plates in the indicated growth medium in which these cell lines are normally maintained (mouse naive cells in a medium containing 2i/LIF, naive hESCs/iPSCs in a WIS-NHSM medium, mouse EpiSCs and human primed ESCS/iPSCs in a KSR/bFGF/TGFβmedium). 36 hours later the wells were supplemented with the indicated inhibitors or growth factors. After 14 days (2 passages), wells were analyzed for Oct4-GFP pluripotency marker expression by FACS, to determine the relative percentage of pluripotent colonies. Pluripotent cell frequency was normalized to an internal control, as indicated by “Growth medium” only on the far left column (For naive cells growth medium was WIS-NHSM, and for primed cells was conventional KSR/bFGF/TGFβcontaining medium as specified in methods). […]
(§2) FIGS. 108A-108C—Signaling and functional characteristics of human naive pluripotency. […] After 14 days (2 passages), wells were analyzed by OCT4 immunostaining of direct detection of OCT4-GFP pluripotency reporter expression, to determine the relative percentage of undifferentiated pluripotent cells. […] After 20 days, colonies positive for OCT4 pluripotency markers were counted and normalized to colonies from cells electroporated with empty vector. […]

[3] = system: primed hESCs/hiPSCs; assay: as above; conditions: primed human cells
Procedure: as §1, §2

B1: BMP4: bone morphogenetic protein 4, recombinant human (protein, UniProt P12644 293-408, looked up)
Bone morphogenetic protein 4: SPKHHSQRARKKNKNCRRHSLYVDFSDVGWNDWIVAPPGYQAFYCHGDCPFPLADHLNSTNHAIVQTLVNSVNSSIPKACCVPTELSAISMLYLDEYDKVVLKNYQEMVVEGCGCR
Question: Which “cells expressing NANOS3-mCherry reporter” value [1] does the source give for B1 here?
Answer: 17.7%

Question: What about the “response of pluripotent state” value [2] of the same molecule?
Answer: do not differentiate

Question: And the “response of pluripotent state” value [3]?
Answer: differentiated
